Assay: yeast display, Sf9 membrane polyspecificity reagent, FACS + sequencing; frameworks hold sequencing errors
Outline: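 A nanobody's polyreactivity label depends on the gate it was sorted from. Yeast display cells were stained with 10% biotinylated, detergent-solubilized Sf9 membrane reagent for 1 hour at 4 °C, enriched on streptavidin microbeads and sorted by FACS. The low and high (top ~1%) gates were set on anti-HA fluorescence for expression and streptavidin fluorescence for reagent binding.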

Row | Sequence | polyreactivity (PSR sort gate)
1 | QVQLVESGGGLFQAGGSLRLSCAASGRILNINAMGWYRQAPGKERELVAAITWRGGRTFYADSVKGRFTISRDNAKNTVYLQMNSLKPEDTAVYYCAASSNTWYPTGYYWGQGTQVTVSS | high polyreactivity
2 | QVQLVESGGGLVQAGGSLRLSCAASGLILYYYDMGWYRQAPGKERELVAAISWNGDDTYYADSVKGRFTISRDNAKNTVYLQMNSLKPEDTAVYYCAAEGPPQTDDYWGQGTQVTVSS | high polyreactivity
3 | QVQRVESGGGLVQAGGSLRLSCAASGSIFGPNAMGWYRQAPGKERELVAAITLSGGSTYYADSVKGRFTISRDNAKNTVYLQMNSLKPEDTAVYYCAAEYYQTTYVWWTYDYYWGQGTQVTVSS | low polyreactivity
4 | QVQLVESGRGLVQEGGSLRLSCAASGFTFYGYAMGWYRQAPGKERELVAAINSGGRTYYADSVKGRFTISRDNAKNSVYLQMNSLKPEDTAVYYCAAVSLYTSDYYWGQGTQVTVSS | high polyreactivity
5 | QVQLVESGGGLVQAGGSLRLSCAASGFTFYLYAMGWYRQAPGKERELVAAISSGSTTYYADSVKGRFTISRDNAKNTVYLQMNSLKPEDTAVYYCNAYYVNYVSNYEYWGQGTQVTVSS | high polyreactivity
6 | QVQLVESGGGLVQAGGSLRVSCASSGRTFSRNAMGWYRQAPGKEMELVATISRRGGSTNYADSVKGRFTISRDNAKNTVYLQMNSMKQEDTAVYYCAAGYRVRDDKVYGIVGPMDYWGQGTQVNVSS | high polyreactivity
7 | QVQLVESGGGLVQAGGSLRLSCAASGFTFDRYAMGWYRQAPGKERELVAAISRSGGSTHYADSVKGRFTISRDNAKNTVYLQMNSLKPEDTAVYYCNKRWFYDGYDYWGQGTQVTVSS | high polyreactivity
8 | QVQHVESGGGLVQAGGSLRLSCAASGSNFGYVMGWYRQAPGKERELVAAISRSGGSTYYADSVKGRFTISRDNAKNTVYLQMNSLKPEDTAVYYCAARLYSSSYNSEQYYYWGQGTQVTVSS | high polyreactivity
9 | QVQRVESGGGLVQAGGSLRLSCAASGRIFSNYAMGWYRQAPGKEREFVAAISGSGGSTYYADSVKGRFTISRDNAKNTVYLQMNSLKPEDTAVYYCSTSGPQYYSRNFDYWGQGTQVTVSS | low polyreactivity
10 | QVQLVESGGGLVQAGGSLRLSCAASGSIFNLYAMGWYRQAPGKERELVAAINWSGGSTYYADSVKGRFTISRDNAKNTVYLQMNSLKPEDTAVYYCAADAYSTYYGYEGDYWGQGTQVTVSS | low polyreactivity
11 | QVQLVESGGGLVQAGGSLRLSCAAYGSTFRRYGMGWYRQAPGKERELVAAISKGGTRTYYADSVKGRFTISRDNVKNTVYLQMNSLKPEDTAVYYCAAAGASSSTPQKEDYWGQGTQVTVSS | high polyreactivity
12 | QVQLVESGGGLVQAGGSLRLSCAASGSTFDAYAMGLYRQAPGKERELVAAITNAGSTNYADSVKGRFTISRDNAKNTVYLQMNSLKPEDTAVYYCATDWYHRYLDGRYDYWGQGTQVTVSS | low polyreactivity
13 | QVQLVESGGGLFQAGGSLRLSCAASGSIFWSYAMGWYRQAPGKERELVAAISSGGSTNYADSVKGRFTISRDNAKNTVYLQMNSLKPEDTAVYYCNAVGAKGYVKGFDYWGQGTQVTVSS | low polyreactivity
14 | QVQLVESGGGLVQAGGSLRLSCAASGSIFTTNTMGWYRQAPGKERELVAAISSGGGTHYADSVKGRFTISRDNAKNTVYLQMNSLKPEDTAVYYCDARSYYYEWFGDVAMYYWGQGTQVTVSS | low polyreactivity
15 | QVQLVESGGGLVQAGGSLRLSCAASGRIFYVYAMGWYRPAPGKERELVAAITQSGGRTYYADSVKGRFTISRDNAKNTVYLQMNSLKPEDTAVYYCNADGDDLDWNYYLVQYDYWGQGTQVTVSS | low polyreactivity
16 | QVQLVESGGGLVKAGGSLRLSCAASGSTSQVNDMGWYRQAPGTERELVGAISSTGDRTYYADSVKGRFTISRDNAKNNVYLQMNSLKPDDTAVYYCANDPFPFPCGDYWGQGTQVTVSS | low polyreactivity
17 | QVQLVESGGGLVQAGGSLRLSCAASGLIFRRYAMGRNRQAHGKERELVAAISRSGGSTYYADSVKGRFTISRDNEKNTVYLQMNSLKPEDTAVYYCAADYAPVFWGDYKYDYWGQGTQVTVSS | high polyreactivity
18 | QVQLVESGGGLVQAGGSLRLSCAASGSTLFTYAMGWYRQAPGNERELVAAITSSGSTYYADSVKGRFTISRDNATNTVSLQMKSLKPEDTAVYYCAGPGYRYTNYYYWGQGTQVTVSS | low polyreactivity
19 | QDQLVESGGGTVQAGGSLRISCAASGSILRSNAMGWYRQAPAKERELVAAITQSGGSTFYADSVKGRFTITRDNAKNTVYLQMNSLKPEDTAVYYWGQGTQVTVSS | low polyreactivity
20 | QVQLVESGGGLVQAGGSLRLSCAASGRIFPYYTLGWYTQAPGKERELVATITTGGSTNYADSVKGRFTLSRDNAENTVYLKMNSLKPEDTAVYYCNNDGVVEVRFTGRQEYDYWGQGTQVTVSS | low polyreactivity
21 | QVQLVETGGVLVQAGGSLRLSCAASGSIFQQNAMGGYRQAPGKERELVASISSGGRTNYADSVKGRCTISRDNAKNTVYLQMNSLKPEDTAVYYCAKTRIRYKPLHFYYWGQGTQVTVSS | low polyreactivity
22 | QVQLVESGGGLVQAGGSLRLSCAASGLTYNRYTMGWYRQAPGKERELVAAITSSGSTYYADSVKGRFTISRDNAKYTVYLQMNSLKPEDTAVYYCNTVYYDWFHYDYWGQGTQVTVSS | high polyreactivity

Row | Sequence | polyreactivity (PSR sort gate)
23 | QVQLVESGGGLVQAGGSLRLSCAASGSTFPKYAMGWYRQAPGKERELVASISVTTGSTYYADSVKGRFTISRDSAKNTVYLQMNSQKPVDTAVFYCAKRTYSRKFRGAYNYWGQGTQVTVSS | high polyreactivity
24 | QVQLVESGGRLVQAGGSHRLSCAASGRTFVENAMGWYRQAPGQEREFVAAISSSGDSTYYADSVKGRFTISRDNEKYTVYLKMNSLNPEDTAVYYCAARVYSRGLFYWGEGTQVTVSS | low polyreactivity
25 | QVQLVESGGGLVQAGGSLRLSCADSGRIYGIYAMGWYRQAPGKERELVAAITNIGGRTYYADSVKGRFTISRDNAKNTVYLQMNSLKPEDTAVYYCAKRWRRRFVDVWSLYDYWGQGTQVTVSS | low polyreactivity
26 | QVQLVESGGGLVQAGGSLRLSCAASGRTFRYYVMGWYRQAPGKERELVASITWRGTSTYYADSVKGRFTISRDNAKNTVYLQMNSLKPEDTAVYYCNAQGVYFRWSGYDYWGQGTQVTVSS | high polyreactivity
27 | QVKRVESGGGLVQAGGSLRLSCAASGIIFTYYAMGWYRQAPGKERELVAAISWTGGRTYFADSVKGRFTISRDNAKNTVYLQMNSLKREDTAVYYCAAKQYTRFGYYYWGQGTQVTVSS | high polyreactivity
28 | QVQLVESGGGLVQAGGSLRLSCAASGSIFASNAMGWYRQAPGKERELVAAITTSGDSTYYADSVKGRFTISRDHAKTTVYFQMNSLKPEDTAVYYCATDKGWGLMDSWGQGTQVTVSS | low polyreactivity
29 | QVQLVESGGGLVQAGCILRLSCASSGIIFSYAMGWYRQAPGKESELVAAISGRDGSTYYADSVKGRFTISRDNAKNTVYLQMNSLKPEDTAVYYCAKRISYLPVEMDYWGHGTQVTVSS | low polyreactivity
30 | QVQLVESGGGLVQAGGSLRLSCAASGGTFKFYAMGWYRQAPGKERELVAAISRRGGNTYYADSVKGRFTISRDNAKNTVYLQMNSLKPEDTAVYYCAVDYRSTGFGYWGQGTQVTVSS | high polyreactivity
31 | QVQLVESGGGLVQAGGSLRLSCAASGSILGGNAMGWYRQAPGKERELVAAITFSGGGTYYADSVKGRFTISRDNAKNTVYLQMNRLKPEDTAVYYCNAFGPDYYHVYPAEDYWGQGTQVTVSS | low polyreactivity
32 | QVQLVESGGGLVQAGGSLRLSCAASGGTFFSNAMGWYRQAPGKERELVAGITSGGRTYYADSVKGRFTISRDNAKNTVYLQMNSLKPEDTAVYYCATQSWVRYGQPEFDYWGQGTQVTVSS | high polyreactivity
33 | QFQLVESGGGLVQAGGSLRLSCAASGRIFGDNAMGWYRQAPGKERELVADIDSGGRTNYADSVKGRFTISRDNAKNTVYLQMNSLKPEDTAVYYCARDDIAYLVEYDYWGQGTQVTVSS | low polyreactivity
34 | QVQLVESGGGLVQEGGSLRLSCAASGITFSYYAMGWYREAPGKEREWVATIRSSGGSTYYADSVKGRFTISRENAKNTVYLQMNSQKPEDTAVYYCAVRLWFDYNYWGQGTQVTVSS | low polyreactivity
35 | QVQLVESGGGLVQAGGSLRLSCAASGRIFAWYAMGWYRQAPGKERELVAAISDSGRSTYYADSVKGRFTISRDNAKNTVYLQMNSLKPEDNAVYYCAADQVVYSAYWCDHYDYWGQGTQVTVSS | low polyreactivity
36 | QVQLVESGGGLVQAGGSLRLSCAASGSIFYSYVMGWYRQAPGKERELVAAISRNGQSTYYADSVKGRFTISRDNAKNTVYLQMNSLKPEDTAVYYCATRGTKSIKDVPGIRYGYWGQGTQVTVSS | high polyreactivity
37 | QVQLVESGGGLVQAGGSLRLSCAASGRIFGYYAMGWYRQAPGKERELVATITFGGGSTYYADSVKGRFTISRDNAKNTVYLQMNSLKPEDTAVYFCAADSGYLGIYGDEYSWGQGTQVTVSS | low polyreactivity
38 | QVQLVESGGGLVQAGGSLRLSCAASGSTVEYNAMGWYRQAPGKERELVASSTNYADSVKGRFTISRDNAKNTVYLQMNSLKPEDTAVYYCAASSLPHDSYRHSYLYEYWGQGTQVTVSS | low polyreactivity
39 | QVQLVESGGGLGHAGGSLRLSCAASGFTYTAYAMGWYRQAPGKERELVPSISKSDGSTYYADSVKGRFTISRDNAKNTVYLQMKSVKPEDTAVYYCATGRISRDFHRVQDLGYDYWGQGTQVNVSS | low polyreactivity
40 | QVQLVESGGGLVQSGVSLRLSCAASGIIFFSNTMGWYRQAPGKEREFVAAITWSTGNTYYADSVKGRFTISRDNAKNTVYLQMNSLKPEDTAVYYCYAEFLVITWYGGVEFDYWGQGTQVTVSS | low polyreactivity
41 | QVQLVESGGGLVQAGGSLRLSCAAYGGIFPSYAMGWYRQAPGKERELVAAISRTGGSTYYADSVKGRFTISRDNAKNTVYLQMNSLKPEDTAVYYCAAEWAWYLGVYRRDRMYWGQGTQVTVSS | high polyreactivity
42 | QVQLVESGGGLVQAGGSLRLSCAASGFTFWSYAMGWYRPAPGKERELVAAISRGGSTSYADSVKGRFTISRDNAKNTVYLLMNSLKPEDTAVYYCAALRPYRNDKGDYWGQGTQVTVSS | high polyreactivity
43 | QVQLVESGGGLVQAGGSLRLSCAASGRIFTRYTMGWYRQAPGKDRELVAAITRGGSTYYADSVKGRFTISRDNANNTVYLQMNSLKPEDTAVYYCATQVWGGRYNYWGQGTQVTVTS | high polyreactivity
